Measured values as given in US20090118185A1 (UNIVERSITY OF ROCHESTER, published 2009).

How the values were obtained:
[1] = biological target: T1, human activated protein C (human, UniProt P04070 43-197; P04070 212-461); experiment: cell-based or functional assay
[2] = biological target: T1, human activated protein C; experiment: cell-based or functional assay; remark: listed apart in the source

T1 sequence (P04070 43-197, chain 1 of 2): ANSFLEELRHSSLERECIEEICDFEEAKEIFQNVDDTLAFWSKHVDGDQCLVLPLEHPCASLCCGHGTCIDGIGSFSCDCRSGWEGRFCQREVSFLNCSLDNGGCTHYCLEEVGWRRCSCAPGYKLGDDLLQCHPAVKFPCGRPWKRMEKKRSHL
T1 sequence (P04070 212-461, chain 2 of 2): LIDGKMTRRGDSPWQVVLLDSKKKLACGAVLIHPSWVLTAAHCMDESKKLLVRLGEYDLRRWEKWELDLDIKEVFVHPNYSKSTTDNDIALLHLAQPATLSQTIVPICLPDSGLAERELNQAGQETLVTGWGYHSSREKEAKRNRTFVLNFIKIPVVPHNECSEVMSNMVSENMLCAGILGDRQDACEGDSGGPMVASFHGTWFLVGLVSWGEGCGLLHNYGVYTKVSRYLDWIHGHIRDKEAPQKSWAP

B1: WT factor VIIIa (B-domainless recombinant human factor VIII activated by thrombin) (other)
chain 1: ATRRYYLGAVELSWDYMQSDLGELPVDARFPPRVPKSFPFNTSVVYKKTLFVEFTVHLFNIAKPRPPWMGLLGPTIQAEVYDTVVITLKNMASHPVSLHAVGVSYWKASEGAEYDDQTSQREKEDDKVFPGGSHTYVWQVLKENGPMASDPLCLTYSYLSHVDLVKDLNSGLIGALLVCREGSLAKEKTQTLHKFILLFAVFDEGKSWHSETKNSLMQDRDAASARAWPKMHTVNGYVNRSLPGLIGCHRKSVYWHVIGMGTTPEVHSIFLEGHTFLVRNHRQASLEISPITFLTAQTLLMDLGQFLLFCHISSHQHDGMEAYVKVDSCPEEPQLRMKNNEEAEDYDDDLTDSEMDVVRFDDDNSPSFIQIR
chain 2: SVAKKHPKTWVHYIAAEEEDWDYAPLVLAPDDRSYKSQYLNNGPQRIGRKYKKVRFMAYTDETFKTREAIQHESGILGPLLYGEVGDTLLIIFKNQASRPYNIYPHGITDVRPLYSRRLPKGVKHLKDFPILPGEIFKYKWTVTVEDGPTKSDPRCLTRYYSSFVNMERDLASGLIGPLLICYKESVDQRGNQIMSDKRNVILFSVFDENRSWYLTENIQRFLPNPAGVQLEDPEFQASNIMHSINGYVFDSLQLSVCLHEVAYWYILSIGAQTDFLSVFFSGYTFKHKMVYEDTLTLFPFSGETVFMSMENPGLWILGCHNSDFRNRGMTALLKVSSCDKNTGDYYEDSYEDISAYLLSKNNAIEPR
chain 3: SFQKKTRHYFIAAVERLWDYGMSSSPHVLRNRAQSGSVPQFKKVVFQEFTDGSFTQPLYRGELNEHLGLLGPYIRAEVEDNIMVTFRNQASRPYSFYSSLISYEEDQRQGAEPRKNFVKPNETKTYFWKVQHHMAPTKDEFDCKAWAYFSDVDLEKDVHSGLIGPLLVCHTNTLNPAHGRQVTVQEFALFFTIFDETKSWYFTENMERNCRAPCNIQMEDPTFKENYRFHAINGYIMDTLPGLVMAQDQRIRWYLLSMGSNENIHSIHFSGHVFTVRKKEEYKMALYNLYPGVFETVEMLPSKAGIWRVECLIGEHLHAGMSTLFLVYSNKCQTPLGMASGHIRDFQITASGQYGQWAPKLARLHYSGSINAWSTKEPFSWIKVDLLAPMIIHGIKTQGARQKFSSLYISQFIIMYSLDGKKWQTYRGNSTGTLMVFFGNVDSSGIKHNIFNPPIIARYIRLHPTHYSIRSTLRMELMGCDLNSCSMPLGMESKAISDAQITASSYFTNMFATWSPSKARLHLQGRSNAWRPQVNNPKEWLQVDFQKTMKVTGVTTQGVKSLLTSMYVKEFLISSSQDGHQWTLFFQNGKVKVFQGNQDSFTPVVNSLDPPLLTRYLRIHPQSWVHQIALRMEVLGCEAQDLY
[1]
  Inactivation (nM FVIIIa/min/nM APC): 5.4 nM FVIIIa/min/nM APC

B2: 336(P1′-P3′)562 factor VIIIa mutant (other)
chain 1: ATRRYYLGAVELSWDYMQSDLGELPVDARFPPRVPKSFPFNTSVVYKKTLFVEFTVHLFNIAKPRPPWMGLLGPTIQAEVYDTVVITLKNMASHPVSLHAVGVSYWKASEGAEYDDQTSQREKEDDKVFPGGSHTYVWQVLKENGPMASDPLCLTYSYLSHVDLVKDLNSGLIGALLVCREGSLAKEKTQTLHKFILLFAVFDEGKSWHSETKNSLMQDRDAASARAWPKMHTVNGYVNRSLPGLIGCHRKSVYWHVIGMGTTPEVHSIFLEGHTFLVRNHRQASLEISPITFLTAQTLLMDLGQFLLFCHISSHQHDGMEAYVKVDSCPEEPQLRGNQNEEAEDYDDDLTDSEMDVVRFDDDNSPSFIQIR
chain 2: SVAKKHPKTWVHYIAAEEEDWDYAPLVLAPDDRSYKSQYLNNGPQRIGRKYKKVRFMAYTDETFKTREAIQHESGILGPLLYGEVGDTLLIIFKNQASRPYNIYPHGITDVRPLYSRRLPKGVKHLKDFPILPGEIFKYKWTVTVEDGPTKSDPRCLTRYYSSFVNMERDLASGLIGPLLICYKESVDQRGNQIMSDKRNVILFSVFDENRSWYLTENIQRFLPNPAGVQLEDPEFQASNIMHSINGYVFDSLQLSVCLHEVAYWYILSIGAQTDFLSVFFSGYTFKHKMVYEDTLTLFPFSGETVFMSMENPGLWILGCHNSDFRNRGMTALLKVSSCDKNTGDYYEDSYEDISAYLLSKNNAIEPR
chain 3: SFQKKTRHYFIAAVERLWDYGMSSSPHVLRNRAQSGSVPQFKKVVFQEFTDGSFTQPLYRGELNEHLGLLGPYIRAEVEDNIMVTFRNQASRPYSFYSSLISYEEDQRQGAEPRKNFVKPNETKTYFWKVQHHMAPTKDEFDCKAWAYFSDVDLEKDVHSGLIGPLLVCHTNTLNPAHGRQVTVQEFALFFTIFDETKSWYFTENMERNCRAPCNIQMEDPTFKENYRFHAINGYIMDTLPGLVMAQDQRIRWYLLSMGSNENIHSIHFSGHVFTVRKKEEYKMALYNLYPGVFETVEMLPSKAGIWRVECLIGEHLHAGMSTLFLVYSNKCQTPLGMASGHIRDFQITASGQYGQWAPKLARLHYSGSINAWSTKEPFSWIKVDLLAPMIIHGIKTQGARQKFSSLYISQFIIMYSLDGKKWQTYRGNSTGTLMVFFGNVDSSGIKHNIFNPPIIARYIRLHPTHYSIRSTLRMELMGCDLNSCSMPLGMESKAISDAQITASSYFTNMFATWSPSKARLHLQGRSNAWRPQVNNPKEWLQVDFQKTMKVTGVTTQGVKSLLTSMYVKEFLISSSQDGHQWTLFFQNGKVKVFQGNQDSFTPVVNSLDPPLLTRYLRIHPQSWVHQIALRMEVLGCEAQDLY
[2]
  fold reduction of inactivation rate compared to WT factor VIIIa: 6 to 11 fold
[1]
  Inactivation (nM FVIIIa/min/nM APC): 0.9 nM FVIIIa/min/nM APC

B3: 562(P4-P3′)336 factor VIII mutant (procofactor) (other)
chain 1: ATRRYYLGAVELSWDYMQSDLGELPVDARFPPRVPKSFPFNTSVVYKKTLFVEFTVHLFNIAKPRPPWMGLLGPTIQAEVYDTVVITLKNMASHPVSLHAVGVSYWKASEGAEYDDQTSQREKEDDKVFPGGSHTYVWQVLKENGPMASDPLCLTYSYLSHVDLVKDLNSGLIGALLVCREGSLAKEKTQTLHKFILLFAVFDEGKSWHSETKNSLMQDRDAASARAWPKMHTVNGYVNRSLPGLIGCHRKSVYWHVIGMGTTPEVHSIFLEGHTFLVRNHRQASLEISPITFLTAQTLLMDLGQFLLFCHISSHQHDGMEAYVKVDSCPEEPQLRMKNNEEAEDYDDDLTDSEMDVVRFDDDNSPSFIQIRSVAKKHPKTWVHYIAAEEEDWDYAPLVLAPDDRSYKSQYLNNGPQRIGRKYKKVRFMAYTDETFKTREAIQHESGILGPLLYGEVGDTLLIIFKNQASRPYNIYPHGITDVRPLYSRRLPKGVKHLKDFPILPGEIFKYKWTVTVEDGPTKSDPRCLTRYYSSFVNMERDLASGLIGPLLICYKESPQLRMKNIMSDKRNVILFSVFDENRSWYLTENIQRFLPNPAGVQLEDPEFQASNIMHSINGYVFDSLQLSVCLHEVAYWYILSIGAQTDFLSVFFSGYTFKHKMVYEDTLTLFPFSGETVFMSMENPGLWILGCHNSDFRNRGMTALLKVSSCDKNTGDYYEDSYEDISAYLLSKNNAIEPR
chain 2: SFQKKTRHYFIAAVERLWDYGMSSSPHVLRNRAQSGSVPQFKKVVFQEFTDGSFTQPLYRGELNEHLGLLGPYIRAEVEDNIMVTFRNQASRPYSFYSSLISYEEDQRQGAEPRKNFVKPNETKTYFWKVQHHMAPTKDEFDCKAWAYFSDVDLEKDVHSGLIGPLLVCHTNTLNPAHGRQVTVQEFALFFTIFDETKSWYFTENMERNCRAPCNIQMEDPTFKENYRFHAINGYIMDTLPGLVMAQDQRIRWYLLSMGSNENIHSIHFSGHVFTVRKKEEYKMALYNLYPGVFETVEMLPSKAGIWRVECLIGEHLHAGMSTLFLVYSNKCQTPLGMASGHIRDFQITASGQYGQWAPKLARLHYSGSINAWSTKEPFSWIKVDLLAPMIIHGIKTQGARQKFSSLYISQFIIMYSLDGKKWQTYRGNSTGTLMVFFGNVDSSGIKHNIFNPPIIARYIRLHPTHYSIRSTLRMELMGCDLNSCSMPLGMESKAISDAQITASSYFTNMFATWSPSKARLHLQGRSNAWRPQVNNPKEWLQVDFQKTMKVTGVTTQGVKSLLTSMYVKEFLISSSQDGHQWTLFFQNGKVKVFQGNQDSFTPVVNSLDPPLLTRYLRIHPQSWVHQIALRMEVLGCEAQDLY
[2]
  fold increase of rate of generation of the A2c fragment compared with WT factor VIII: 27 fold

B4: 562(P4-P2)336 factor VIII mutant (procofactor) (other)
chain 1: ATRRYYLGAVELSWDYMQSDLGELPVDARFPPRVPKSFPFNTSVVYKKTLFVEFTVHLFNIAKPRPPWMGLLGPTIQAEVYDTVVITLKNMASHPVSLHAVGVSYWKASEGAEYDDQTSQREKEDDKVFPGGSHTYVWQVLKENGPMASDPLCLTYSYLSHVDLVKDLNSGLIGALLVCREGSLAKEKTQTLHKFILLFAVFDEGKSWHSETKNSLMQDRDAASARAWPKMHTVNGYVNRSLPGLIGCHRKSVYWHVIGMGTTPEVHSIFLEGHTFLVRNHRQASLEISPITFLTAQTLLMDLGQFLLFCHISSHQHDGMEAYVKVDSCPEEPQLRMKNNEEAEDYDDDLTDSEMDVVRFDDDNSPSFIQIRSVAKKHPKTWVHYIAAEEEDWDYAPLVLAPDDRSYKSQYLNNGPQRIGRKYKKVRFMAYTDETFKTREAIQHESGILGPLLYGEVGDTLLIIFKNQASRPYNIYPHGITDVRPLYSRRLPKGVKHLKDFPILPGEIFKYKWTVTVEDGPTKSDPRCLTRYYSSFVNMERDLASGLIGPLLICYKESPQLRGNQIMSDKRNVILFSVFDENRSWYLTENIQRFLPNPAGVQLEDPEFQASNIMHSINGYVFDSLQLSVCLHEVAYWYILSIGAQTDFLSVFFSGYTFKHKMVYEDTLTLFPFSGETVFMSMENPGLWILGCHNSDFRNRGMTALLKVSSCDKNTGDYYEDSYEDISAYLLSKNNAIEPR
chain 2: SFQKKTRHYFIAAVERLWDYGMSSSPHVLRNRAQSGSVPQFKKVVFQEFTDGSFTQPLYRGELNEHLGLLGPYIRAEVEDNIMVTFRNQASRPYSFYSSLISYEEDQRQGAEPRKNFVKPNETKTYFWKVQHHMAPTKDEFDCKAWAYFSDVDLEKDVHSGLIGPLLVCHTNTLNPAHGRQVTVQEFALFFTIFDETKSWYFTENMERNCRAPCNIQMEDPTFKENYRFHAINGYIMDTLPGLVMAQDQRIRWYLLSMGSNENIHSIHFSGHVFTVRKKEEYKMALYNLYPGVFETVEMLPSKAGIWRVECLIGEHLHAGMSTLFLVYSNKCQTPLGMASGHIRDFQITASGQYGQWAPKLARLHYSGSINAWSTKEPFSWIKVDLLAPMIIHGIKTQGARQKFSSLYISQFIIMYSLDGKKWQTYRGNSTGTLMVFFGNVDSSGIKHNIFNPPIIARYIRLHPTHYSIRSTLRMELMGCDLNSCSMPLGMESKAISDAQITASSYFTNMFATWSPSKARLHLQGRSNAWRPQVNNPKEWLQVDFQKTMKVTGVTTQGVKSLLTSMYVKEFLISSSQDGHQWTLFFQNGKVKVFQGNQDSFTPVVNSLDPPLLTRYLRIHPQSWVHQIALRMEVLGCEAQDLY
[2]
  fold increase of rate of generation of the A2c fragment compared with WT factor VIII: 6 fold
